Laboratory results taken from PMC4081085.

Assays:
Assay in all cases: fluorescence polarization
PARP-2 N116A = details: 5' phosphate on one strand, FP: 5 nM labeled DNA, 30 min, RT, PARP-1/-2 buffer per cited ref 19, PARP-3 in 12 mM HEPES pH 8.0, 30 mM KCl (low) or 60 mM KCl (intermediate), 0.12 mM EDTA
PARP-2 R140A = details: 5' phosphate on one strand, FP: 5 nM labeled DNA, 30 min, RT, PARP-1/-2 buffer per cited ref 19, PARP-3 in 12 mM HEPES pH 8.0, 30 mM KCl (low) or 60 mM KCl (intermediate), 0.12 mM EDTA
PARP-2 W138A = details: 5' phosphate on one strand, FP: 5 nM labeled DNA, 30 min, RT, PARP-1/-2 buffer per cited ref 19, PARP-3 in 12 mM HEPES pH 8.0, 30 mM KCl (low) or 60 mM KCl (intermediate), 0.12 mM EDTA
PARP-2 Y188F = details: 5' phosphate on one strand, FP: 5 nM labeled DNA, 30 min, RT, PARP-1/-2 buffer per cited ref 19, PARP-3 in 12 mM HEPES pH 8.0, 30 mM KCl (low) or 60 mM KCl (intermediate), 0.12 mM EDTA
dNTR-PARP-2 = details: 5' phosphate on one strand, FP: 5 nM labeled DNA, 30 min, RT, PARP-1/-2 buffer per cited ref 19, PARP-3 in 12 mM HEPES pH 8.0, 30 mM KCl (low) or 60 mM KCl (intermediate), 0.12 mM EDTA
PARP-2 WT = details: none, FP: 5 nM labeled DNA, 30 min, RT, PARP-1/-2 buffer per cited ref 19, PARP-3 in 12 mM HEPES pH 8.0, 30 mM KCl (low) or 60 mM KCl (intermediate), 0.12 mM EDTA
PARP-3 R103A = details: 5' phosphate at nick, position 24, FP: 5 nM labeled DNA, 30 min, RT, PARP-1/-2 buffer per cited ref 19, PARP-3 in 12 mM HEPES pH 8.0, 30 mM KCl (low) or 60 mM KCl (intermediate), 0.12 mM EDTA
PARP-3 Y150F = details: 5' phosphate at nick, position 24, FP: 5 nM labeled DNA, 30 min, RT, PARP-1/-2 buffer per cited ref 19, PARP-3 in 12 mM HEPES pH 8.0, 30 mM KCl (low) or 60 mM KCl (intermediate), 0.12 mM EDTA
dNTR-PARP-3 = details: low ionic strength buffer?, 5' phosphate at nick, position 24, FP: 5 nM labeled DNA, 30 min, RT, PARP-1/-2 buffer per cited ref 19, PARP-3 in 12 mM HEPES pH 8.0, 30 mM KCl (low) or 60 mM KCl (intermediate), 0.12 mM EDTA

With 28-bp duplex 5'P (template 18) the binding signal (% of WT affinity) (PARP-2 N116A) was 45, the binding signal (% of WT affinity) (PARP-2 R140A) was 25 and the binding signal (% of WT affinity) (PARP-2 W138A) was 28. For the same substance, the binding signal (% of WT affinity) (PARP-2 Y188F) was 7 and the binding signal (fold lower affinity than WT) (dNTR-PARP-2) was 4.

28-bp duplex 5'OH (non-phosphorylated) gave a binding signal (fold lower affinity than for 5'P DNA) (PARP-2 WT) of 2.5.

For 47-bp duplex with 5'P nick (template 8), the binding signal (% of WT affinity) (PARP-3 R103A) was 25, the binding signal (% of WT affinity) (PARP-3 Y150F) was 54 and the binding signal (fold lower affinity than WT) (dNTR-PARP-3) was 3.5.
